Source: publication PMC3176292, “Mutations in Protein-Binding Hot-Spots on the Hub Protein Smad3 Differentially Affect Its Protein Interactions and Smad3-Regulated Gene Expression” (PLoS ONE, 2011)

T1: Flag-SARA, full length (UniProt O95405 1-1425)
T1 construct: SARA; plasmid pCMV5b-Flag-SARA; also called SARA FL; source: HEK-293, transfected, in lysate
T1 sequence (looked up): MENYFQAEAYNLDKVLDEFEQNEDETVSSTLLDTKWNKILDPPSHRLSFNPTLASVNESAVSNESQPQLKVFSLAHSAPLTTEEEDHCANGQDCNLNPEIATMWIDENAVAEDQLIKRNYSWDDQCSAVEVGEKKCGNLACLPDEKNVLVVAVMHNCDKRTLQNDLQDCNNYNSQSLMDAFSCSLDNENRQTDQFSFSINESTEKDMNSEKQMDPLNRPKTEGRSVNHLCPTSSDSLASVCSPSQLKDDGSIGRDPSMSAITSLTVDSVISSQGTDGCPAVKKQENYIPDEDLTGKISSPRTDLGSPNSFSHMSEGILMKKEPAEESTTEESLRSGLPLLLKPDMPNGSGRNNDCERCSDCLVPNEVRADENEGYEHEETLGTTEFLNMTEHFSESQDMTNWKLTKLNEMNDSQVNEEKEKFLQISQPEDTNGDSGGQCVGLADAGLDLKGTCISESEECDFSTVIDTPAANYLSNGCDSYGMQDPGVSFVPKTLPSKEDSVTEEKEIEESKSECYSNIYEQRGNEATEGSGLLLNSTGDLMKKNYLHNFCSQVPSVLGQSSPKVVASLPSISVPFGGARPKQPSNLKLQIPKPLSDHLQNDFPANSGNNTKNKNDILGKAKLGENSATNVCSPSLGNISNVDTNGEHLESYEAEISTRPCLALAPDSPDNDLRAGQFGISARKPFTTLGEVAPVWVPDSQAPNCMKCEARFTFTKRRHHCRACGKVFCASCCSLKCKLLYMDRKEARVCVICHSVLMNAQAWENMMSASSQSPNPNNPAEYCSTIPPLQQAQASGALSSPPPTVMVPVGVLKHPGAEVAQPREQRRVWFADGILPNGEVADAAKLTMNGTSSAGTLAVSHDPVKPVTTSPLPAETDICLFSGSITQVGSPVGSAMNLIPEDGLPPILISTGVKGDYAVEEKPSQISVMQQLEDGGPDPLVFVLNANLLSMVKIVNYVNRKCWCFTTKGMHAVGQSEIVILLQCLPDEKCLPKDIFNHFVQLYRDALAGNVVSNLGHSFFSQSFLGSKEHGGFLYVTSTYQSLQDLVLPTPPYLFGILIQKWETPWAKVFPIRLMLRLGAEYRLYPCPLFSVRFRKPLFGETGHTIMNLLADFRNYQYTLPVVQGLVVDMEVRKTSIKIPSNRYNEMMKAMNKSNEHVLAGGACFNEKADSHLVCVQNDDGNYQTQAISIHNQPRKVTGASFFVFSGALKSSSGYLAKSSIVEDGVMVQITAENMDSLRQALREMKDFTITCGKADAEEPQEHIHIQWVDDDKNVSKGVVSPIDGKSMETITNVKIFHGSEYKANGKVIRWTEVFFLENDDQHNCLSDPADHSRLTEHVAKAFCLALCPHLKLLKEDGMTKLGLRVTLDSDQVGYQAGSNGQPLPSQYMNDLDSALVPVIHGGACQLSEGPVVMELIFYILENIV

T2: Flag-Smad4, full length (UniProt Q13485 1-552)
T2 construct: Smad4; plasmid pCMV5-Flag-Smad4 (from J. Massagué); also called Smad4 FL; source: HEK-293, transfected, in lysate
T2 sequence (looked up): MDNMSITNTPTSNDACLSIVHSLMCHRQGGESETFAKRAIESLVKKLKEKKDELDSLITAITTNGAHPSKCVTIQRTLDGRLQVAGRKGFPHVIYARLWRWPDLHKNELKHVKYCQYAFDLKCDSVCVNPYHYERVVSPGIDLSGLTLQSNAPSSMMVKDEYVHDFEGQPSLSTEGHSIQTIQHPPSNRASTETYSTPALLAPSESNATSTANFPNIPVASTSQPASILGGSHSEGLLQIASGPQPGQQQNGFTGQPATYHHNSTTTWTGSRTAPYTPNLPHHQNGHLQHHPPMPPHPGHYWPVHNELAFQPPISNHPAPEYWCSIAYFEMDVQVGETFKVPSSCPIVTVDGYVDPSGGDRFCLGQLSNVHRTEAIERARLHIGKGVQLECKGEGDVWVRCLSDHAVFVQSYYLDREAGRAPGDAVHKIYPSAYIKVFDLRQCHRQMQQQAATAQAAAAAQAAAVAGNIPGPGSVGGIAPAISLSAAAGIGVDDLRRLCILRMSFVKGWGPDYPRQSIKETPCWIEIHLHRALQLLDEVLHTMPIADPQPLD

T3: Ski Smad-binding domain (amino acids 2–56) on the 3xFlag-thioredoxin scaffold (UniProt P12755 2-56)
T3 construct: Ski, amino acids 2–56; cloned into the unique RsrII site of pCI-3xFLAG-Trx; also called Ski aa2–56; TrxSki; source: HEK-293, transfected, in lysate
T3 sequence (looked up): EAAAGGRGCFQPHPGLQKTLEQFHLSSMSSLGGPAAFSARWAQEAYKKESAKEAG

B1: Renilla luciferase-Smad3 D408H (natural protein, UniProt P84022 1-425, looked up)
chain: MSSILPFTPPIVKRLLGWKKGEQNGQEEKWCEKAVKSLVKKLKKTGQLDELEKAITTQNVNTKCITIPRSLDGRLQVSHRKGLPHVIYCRLWRWPDLHSHHELRAMELCEFAFNMKKDEVCVNPYHYQRVETPVLPPVLVPRHTEIPAEFPPLDDYSHSIPENTNFPAGIEPQSNIPETPPPGYLSEDGETSDHQMNHSMDAGSPNLSPNPMSPAHNNLDLQPVTYCEPAFWCSISYYELNQRVGETFHASQPSMTVDGFTDPSNSERFCLGLLSNVNRNAAVELTRRHIGRGVRLYYIGGEVFAECLSDSAIFVQSPNCNQRYGWHPATVCKIPPGCNLKIFNNQEFAALLAQSVNQGFEAVYQLTRMCTIRMSFVKGWGAEYRRQTVTSTPCWIELHLNGPLQWLHKVLTQMGSPSIRCSSVS
notes: Smad3; source: HEK-293, transfected together with constitutively active Alk5, in lysate
B2: Renilla luciferase-Smad3 R243A (natural protein, UniProt P84022 1-425, looked up)
chain: MSSILPFTPPIVKRLLGWKKGEQNGQEEKWCEKAVKSLVKKLKKTGQLDELEKAITTQNVNTKCITIPRSLDGRLQVSHRKGLPHVIYCRLWRWPDLHSHHELRAMELCEFAFNMKKDEVCVNPYHYQRVETPVLPPVLVPRHTEIPAEFPPLDDYSHSIPENTNFPAGIEPQSNIPETPPPGYLSEDGETSDHQMNHSMDAGSPNLSPNPMSPAHNNLDLQPVTYCEPAFWCSISYYELNQAVGETFHASQPSMTVDGFTDPSNSERFCLGLLSNVNRNAAVELTRRHIGRGVRLYYIGGEVFAECLSDSAIFVQSPNCNQRYGWHPATVCKIPPGCNLKIFNNQEFAALLAQSVNQGFEAVYQLTRMCTIRMSFVKGWGAEYRRQTVTSTPCWIELHLNGPLQWLDKVLTQMGSPSIRCSSVS
notes: as for B1
B3: Renilla luciferase-Smad3 R268A (natural protein, UniProt P84022 1-425, looked up)
chain: MSSILPFTPPIVKRLLGWKKGEQNGQEEKWCEKAVKSLVKKLKKTGQLDELEKAITTQNVNTKCITIPRSLDGRLQVSHRKGLPHVIYCRLWRWPDLHSHHELRAMELCEFAFNMKKDEVCVNPYHYQRVETPVLPPVLVPRHTEIPAEFPPLDDYSHSIPENTNFPAGIEPQSNIPETPPPGYLSEDGETSDHQMNHSMDAGSPNLSPNPMSPAHNNLDLQPVTYCEPAFWCSISYYELNQRVGETFHASQPSMTVDGFTDPSNSEAFCLGLLSNVNRNAAVELTRRHIGRGVRLYYIGGEVFAECLSDSAIFVQSPNCNQRYGWHPATVCKIPPGCNLKIFNNQEFAALLAQSVNQGFEAVYQLTRMCTIRMSFVKGWGAEYRRQTVTSTPCWIELHLNGPLQWLDKVLTQMGSPSIRCSSVS
notes: as for B1
B4: Renilla luciferase-Smad3 R292A (natural protein, UniProt P84022 1-425, looked up)
chain: MSSILPFTPPIVKRLLGWKKGEQNGQEEKWCEKAVKSLVKKLKKTGQLDELEKAITTQNVNTKCITIPRSLDGRLQVSHRKGLPHVIYCRLWRWPDLHSHHELRAMELCEFAFNMKKDEVCVNPYHYQRVETPVLPPVLVPRHTEIPAEFPPLDDYSHSIPENTNFPAGIEPQSNIPETPPPGYLSEDGETSDHQMNHSMDAGSPNLSPNPMSPAHNNLDLQPVTYCEPAFWCSISYYELNQRVGETFHASQPSMTVDGFTDPSNSERFCLGLLSNVNRNAAVELTRRHIGAGVRLYYIGGEVFAECLSDSAIFVQSPNCNQRYGWHPATVCKIPPGCNLKIFNNQEFAALLAQSVNQGFEAVYQLTRMCTIRMSFVKGWGAEYRRQTVTSTPCWIELHLNGPLQWLDKVLTQMGSPSIRCSSVS
notes: as for B1
B5: Renilla luciferase-Smad3 Y238A (natural protein, UniProt P84022 1-425, looked up)
chain: MSSILPFTPPIVKRLLGWKKGEQNGQEEKWCEKAVKSLVKKLKKTGQLDELEKAITTQNVNTKCITIPRSLDGRLQVSHRKGLPHVIYCRLWRWPDLHSHHELRAMELCEFAFNMKKDEVCVNPYHYQRVETPVLPPVLVPRHTEIPAEFPPLDDYSHSIPENTNFPAGIEPQSNIPETPPPGYLSEDGETSDHQMNHSMDAGSPNLSPNPMSPAHNNLDLQPVTYCEPAFWCSISYAELNQRVGETFHASQPSMTVDGFTDPSNSERFCLGLLSNVNRNAAVELTRRHIGRGVRLYYIGGEVFAECLSDSAIFVQSPNCNQRYGWHPATVCKIPPGCNLKIFNNQEFAALLAQSVNQGFEAVYQLTRMCTIRMSFVKGWGAEYRRQTVTSTPCWIELHLNGPLQWLDKVLTQMGSPSIRCSSVS
notes: as for B1
B6: Renilla luciferase-Smad3 Y384A (natural protein, UniProt P84022 1-425, looked up)
chain: MSSILPFTPPIVKRLLGWKKGEQNGQEEKWCEKAVKSLVKKLKKTGQLDELEKAITTQNVNTKCITIPRSLDGRLQVSHRKGLPHVIYCRLWRWPDLHSHHELRAMELCEFAFNMKKDEVCVNPYHYQRVETPVLPPVLVPRHTEIPAEFPPLDDYSHSIPENTNFPAGIEPQSNIPETPPPGYLSEDGETSDHQMNHSMDAGSPNLSPNPMSPAHNNLDLQPVTYCEPAFWCSISYYELNQRVGETFHASQPSMTVDGFTDPSNSERFCLGLLSNVNRNAAVELTRRHIGRGVRLYYIGGEVFAECLSDSAIFVQSPNCNQRYGWHPATVCKIPPGCNLKIFNNQEFAALLAQSVNQGFEAVYQLTRMCTIRMSFVKGWGAEARRQTVTSTPCWIELHLNGPLQWLDKVLTQMGSPSIRCSSVS
notes: as for B1

What was measured:
Assay in all cases: co-IP; LUMIER: Renilla luciferase-Smad3 and Flag-tagged partner co-expressed with constitutively active Alk5 in HEK-293; Flag protein captured from cleared lysate (TNE: 10 mM Tris-HCl pH 7.8, 150 mM NaCl, 1 mM EDTA, 1% Igepal CA-630) on anti-Flag 96-well plates, 2 h at 4 °C; co-precipitated Renilla luciferase activity, TrxGA background subtracted, percent of wild-type Smad3
Settings in all cases: partners not purified
Flag-SARA, full length = molecular target: T1, Flag-SARA, full length
Flag-Smad4, full length = molecular target: T2, Flag-Smad4, full length
[1] = molecular target: T3, Ski Smad-binding domain (amino acids …)

Binder	percent binding relative to wild-type Smad3 (Flag-SARA, full length)	percent binding relative to wild-type Smad3 (Flag-Smad4, full length)	percent binding relative to wild-type Smad3 [1]
B1	168%		
B2	181%	20%	3%
B3	159%	18%	2%
B4	120%	49%	4%
B5	162%	27%	2%
B6	178%	19%	3%
